Experimental data reported in article doi:10.1101/829150.

Target: Chicken gizzard actin (chicken) (UniProt P63270)
Assay: nanopore sensing

filamentous fraction, initial: 17%
filamentous fraction, maximum: 75%
Substance: Chicken gizzard actin (from UniProt P63270 1-376) (natural protein)
